± gives the standard deviation.

This data set can be described thus: protein stability index of a GFP-peptide fusion (GPS, HEK-293T) (PSI 1-6); higher = more stable.
[1] abbreviates: treatment: DMSO, c terminus: a fixed tail appended.
[2] abbreviates: treatment: MLN4924 1 uM, 8 h, c terminus: a fixed tail appended.
The mark [3] stands for this setting: treatment: DMSO, c terminus: native.
Where [4] appears, read: treatment: MLN4924 1 uM, 8 h, c terminus: native.
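Also: 24-mer peptide tiles fused after GFP, lentivirally expressed, FACS-sorted into six equal bins by GFP/DsRed ratio, decoded by Illumina sequencing, PSI is the read-weighted mean bin number.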

For GSQLEDQALRGLEGYTWRVAQLED [ZSWIM9], the protein stability index by setting is: under setting [1], 3.98 ± 0.55; under setting [2], 4.25 ± 0.2.

In the case of GSTLAMLQRLKEQQFVIAGVLVED [ZBED1], the protein stability index is, setting by setting: under setting [1], 2.22 ± 0.46; under setting [2], 2.1 ± 0.19.

With GTAFDAETDSEMNSQESRSDLEDM [SMG5], the protein stability index amounted to 5.63 ± 0.24 under setting [1] and 5.5 ± 0.49 under setting [2].

Regarding GVCMGLVAAACACGFTVAQIITSL [OR10K2], the protein stability index reads like this: under setting [1], 3.21 ± 0.34; under setting [2], 3.04 ± 0.69.

With GVMLTWPDGLMYQKFRNQFLSFSM [TMEM120A], the protein stability index is, setting by setting: under setting [1], 2.89 ± 0.98; under setting [2], 2.69 ± 0.43.

Consider GVSSVDSAFSSRGSLSLSFEREPS [RIPK4], for which the protein stability index is 4.33 ± 0.77 under setting [1] and 4.8 ± 0.52 under setting [2].

For GWSKGFIGMHREMQVNPISKRMGP [RHOBTB1], the protein stability index reads like this: under setting [1], 2.63 ± 0.32; under setting [2], 2.61 ± 0.12.

For the sequence GYSLADWVCLAYFTSGFNAAALDY [SPACA3], the protein stability index is, setting by setting: under setting [1], 3.33 ± 0.44; under setting [2], 2.98 ± 0.13.

In the case of HAACLKCAECSQYLDETCTCFVRD [ISL2], the protein stability index is, setting by setting: under setting [1], 4.67 ± 0.22; under setting [2], 4.83 ± 0.23.

Regarding HAAQGGPLLCPGCQGQPQGKAVVS [ELOA2], the protein stability index by setting is: under setting [1], 3.9 ± 0.36; under setting [2], 4.09 ± 0.24.

Regarding HALATRASDYSKKSNVLKLKTADW [PSD2], the protein stability index turned out to be 3.13 ± 0.18 under setting [1] and 3.17 ± 0.17 under setting [2].

With HCKAGLGRTGTLIACYVMKHYRFT [CDC14A], the protein stability index runs as follows: under setting [1], 3.52 ± 0.52; under setting [2], 2.76 ± 0.37.

In the case of HECILPFVQVKGNFARLQTCISEL [M1AP], the protein stability index came out at 2.21 ± 0.11 under setting [1] and 2.21 ± 0.13 under setting [2].

In turn, HESQQLATETQALAQRTQQDSTRT [TEKT4] registered a protein stability index under setting [1] of 5.41 ± 0.23 and a protein stability index under setting [2] of 5.43 ± 0.074.

Take HGPGHETPMTIPEFFRESVNRFGT [ACSBG2]: the protein stability index by setting is: under setting [1], 3.54 ± 0.29; under setting [2], 3.6 ± 0.13.

Consider HGTKNVTNSSSLRLPRQNSDGGQK [WSB1], for which the protein stability index came to 4.96 ± 0.2 under setting [1] and 4.87 ± 0.47 under setting [2].

For the sequence HGVLSAEGFLFVFGGQDENKQTLS [GAN], the protein stability index was found to be 2.43 ± 0.27 under setting [1] and 2.65 ± 0.073 under setting [2].

In the case of HHSHSGPEISRIIVDPTTGKRYCR [PLK2], the protein stability index is, setting by setting: under setting [1], 4.08 ± 0.16; under setting [2], 4.32 ± 0.17.

Sequence HIKEILITAGGENVPPIPVETLVK [ACSBG2] displayed a protein stability index under setting [1] of 2.71 ± 0.38 and a protein stability index under setting [2] of 2.88 ± 0.2.

Regarding HKVAPLVQSLCAKHGIEYQSKPLL [FADS1], the protein stability index amounted to 2.68 ± 0.34 under setting [1] and 3 ± 0.17 under setting [2].

For the sequence HLEYRFYKQLGSAGEGLPQVYYFG [CSNK1G1], the protein stability index under setting [1] is 2.2 ± 0.47 and the protein stability index under setting [2] came out at 2.15 ± 0.68.

For HLNRGNHEDHMVNLRYGFTKEVMN [PPEF2], the protein stability index is 2.99 ± 0.3 under setting [1] and 3.16 ± 0.42 under setting [2].

Turning to HLSSQQASGQSYSSREVFTSSSSS [KRT16], the protein stability index by setting is: under setting [1], 4.63 ± 0.21; under setting [2], 4.58 ± 0.17.

For HNCQLHRISFCADDKTDKRIFTFI [GULP1], the protein stability index worked out at 2.61 ± 0.36 under setting [1] and 2.4 ± 0.52 under setting [2].

Turning to HNGKIYISGGVHNGEYVPWLYCYD [KLHL14], the protein stability index by setting is: under setting [1], 2.13 ± 0.68; under setting [2], 2.32 ± 0.48.

Turning to HNIFLLGGSSTSERCLLNNSLWKK [NLN], the protein stability index runs as follows: under setting [1], 2.39 ± 0.13; under setting [2], 2.24 ± 0.39.

HNIVFGDYTWTEFDEPFLTRNVQS [TRIP13]: the protein stability index under setting [1] turned out to be 2.63 ± 0.06 and the protein stability index under setting [2] amounted to 2.61 ± 0.32.

HPSGHWATCRLCGEQVGRGPGFHA [ZBED3]: the protein stability index amounted to 2.52 ± 0.069 under setting [1] and 3.05 ± 0.29 under setting [2].

Turning to HRVKLTNSTLDPHGHLILHSMHKY [TBX6], the protein stability index by setting is: under setting [1], 2.37 ± 0.35; under setting [2], 2.71 ± 0.2.

As to HSEGRVEVYYDGQWGTVCDDDFSI [LOXL2], the protein stability index runs as follows: under setting [1], 3.23 ± 0.33; under setting [2], 3.56 ± 0.33.

On to HSEILKYFQSVTSNRWLMVKIFLI [STX5], for which the protein stability index runs as follows: under setting [1], 2.32 ± 0.36; under setting [2], 2.4 ± 0.43.

Consider HSEVVEELVSADVIDLFDEQGLSA [RIPK4], for which the protein stability index worked out at 5.02 ± 0.52 under setting [1] and 4.98 ± 0.52 under setting [2].

With HSGQVTILKLEQENCTLVTTFRGH [WDFY2], the protein stability index reads like this: under setting [1], 2.35 ± 0.26; under setting [2], 2.29 ± 0.28.

Take HTDSKYEHAIAEAQKNMYFKTRLK [ZNF396]: the protein stability index is, setting by setting: under setting [1], 3.8 ± 0.22; under setting [2], 3.5 ± 0.32.

For the sequence HYWELDVDNSCDWALGVCNNSWIR [TRIM43], the protein stability index reads like this: under setting [1], 2.25 ± 0.21; under setting [2], 2.2 ± 0.34.

As for IADLFVADQRSRMLSIFYFAIPVG [SPNS1], the protein stability index was found to be 3.08 ± 0.65 under setting [1] and 2.94 ± 0.41 under setting [2].

As for IAIARLRGSDLKVLEVTEESIDFD [FBXO33], the protein stability index was 2.73 ± 0.3 under setting [1] and 2.77 ± 0.47 under setting [2].

With IAPVLKLASHHNHFSQIVIFMLCT [OR10K2], the protein stability index by setting is: under setting [1], 3.25 ± 0.75; under setting [2], 3.2 ± 0.83.

Turning to IASEPTNKHLFYAEDFSTMDEISE [MATN2], the protein stability index by setting is: under setting [1], 4.57 ± 0.27; under setting [2], 4.59 ± 0.23.

On to ICDPGLTSFEPEALGNLVEGMDFH [CAMK2B], for which the protein stability index runs as follows: under setting [1], 3.92 ± 0.23; under setting [2], 4.07 ± 0.13.

ICGFLKERCFRGSSYPVCVSKVVK [OAS1]: the protein stability index was found to be 2.62 ± 0.31 under setting [1] and 2.13 ± 0.3 under setting [2].

For IDEQDSYIQSRADTMQNIESTIVE [STX5], the protein stability index reads like this: under setting [1], 5.23 ± 0.31; under setting [2], 5.14 ± 0.12.

With IDKNTQLTLQVYREQADSCREQLD [TRIM14], the protein stability index reads like this: under setting [1], 4.58 ± 0.21; under setting [2], 4.18 ± 0.79.

Turning to IENNKYGWFWVCPGGGDICMYRHA [ZC3H15], the protein stability index was 2.52 ± 0.32 under setting [1] and 2.15 ± 0.53 under setting [2].

As to IERMKQIYQQLSRYRGLGLLASVP [CRY1], the protein stability index under setting [1] was 2.3 ± 0.49 and the protein stability index under setting [2] was determined as 2.36 ± 0.35.

Take IFIARRSLLDELLEVDHIRTIYHM [SOAT1]: the protein stability index runs as follows: under setting [1], 2.8 ± 0.58; under setting [2], 2.66 ± 0.75.

Turning to IFYDLVRQINRKTPVPGKARKKSS [RAP1B], the protein stability index is, setting by setting: under setting [1], 2.47 ± 0.47; under setting [2], 2.37 ± 0.4.

As to IGCGNFGELRLGKNLYTNEYVAIK [CSNK1G3], the protein stability index reads like this: under setting [1], 2.07 ± 0.18; under setting [2], 2.12 ± 0.44.

As to IGPIHLNEIQCTGNEKSIIDCKFN [LOXL2], the protein stability index reads like this: under setting [1], 3.63 ± 0.15; under setting [2], 3.67 ± 0.23.

For the sequence IGVGLGFELQRLEFDLSPLNLDIG [AASDHPPT], the protein stability index stood at 2.3 ± 0.55 under setting [1] and 2.29 ± 0.24 under setting [2].

On to IHERTHERERLYPFSECGEAVSDS [ZNF263], for which the protein stability index was 4.81 ± 0.41 under setting [1] and 4.88 ± 0.22 under setting [2].

As for IISSDELNVRSEEQVFNAVMAWVK [KLHL20], the protein stability index worked out at 2.28 ± 0.22 under setting [1] and 2.42 ± 0.32 under setting [2].

Take IIYVASNHFVWRLIPVPMATQIQQ [VPS39]: the protein stability index is, setting by setting: under setting [1], 3.19 ± 0.35; under setting [2], 3.09 ± 0.65.

Regarding IKPPCIPNGKENFSGGTSLWQNI [CAMK2D], the protein stability index is 3.2 ± 0.13 under setting [3] and 3.2 ± 0.21 under setting [4].

On to IKSKKKLLQIIDTTLLKCYLHTNV [VPS39], for which the protein stability index by setting is: under setting [1], 3.04 ± 0.37; under setting [2], 2.86 ± 0.52.

ILCNKTAYQEVFKPENISLRNKLR [SMG5]: the protein stability index runs as follows: under setting [1], 2.46 ± 0.24; under setting [2], 2.77 ± 0.23.

Turning to ILDSLLFFYDCSNNPISEHFHPTV [TENT5C], the protein stability index under setting [1] came to 3.15 ± 0.71 and the protein stability index under setting [2] turned out to be 3.13 ± 0.68.

ILHIPQVTKLCVQFLNDQISVQNY [KLHL14]: the protein stability index runs as follows: under setting [1], 2.54 ± 0.45; under setting [2], 2.51 ± 0.52.

In the case of ILREIRHPNIITLHDIFENKTDVV [DAPK3], the protein stability index runs as follows: under setting [1], 2.47 ± 0.21; under setting [2], 2.54 ± 0.2.

Take ILRLPLEHACTVRNLARSQSVKMK [TAF7L]: the protein stability index is 2.92 ± 0.18 under setting [1] and 3.19 ± 0.34 under setting [2].

As for IPAAVLAGFTGSGPIQLWQFLLEL [ETS2], the protein stability index worked out at 2.69 ± 0.62 under setting [1] and 2.5 ± 0.25 under setting [2].

In the case of IPQGICPVGRSWHSLTPVSSDHLF [KLHDC2], the protein stability index was 2.68 ± 0.28 under setting [1] and 2.52 ± 0.21 under setting [2].

For the sequence IQLIKTNKKHIHSRSTLECAYRTH [SMG5], the protein stability index under setting [1] worked out at 2.38 ± 0.096 and the protein stability index under setting [2] was 2.54 ± 0.1.

On to IQWKNHDQNNHNTDRSSHKDSMN [EDNRA], for which the protein stability index is, setting by setting: under setting [3], 5.36 ± 0.29; under setting [4], 5.49 ± 0.23.

In the case of IRISMSHEEEPLGTAGPLALARDL [GMPPB], the protein stability index runs as follows: under setting [1], 3 ± 0.053; under setting [2], 3.27 ± 0.34.

Take IRRPVNVPIDIFSEEIRFYQLGEE [KCNA3]: the protein stability index under setting [1] came to 2.59 ± 0.56 and the protein stability index under setting [2] is 2.75 ± 0.37.

For ITCSSTMSYSCCLPSLGCRTSCSS [KRT34], the protein stability index runs as follows: under setting [1], 2.19 ± 0.16; under setting [2], 2.1 ± 0.32.

With ITHSTYSLPASSYSQDPVYANGGL [NOL4L], the protein stability index runs as follows: under setting [1], 2.96 ± 0.32; under setting [2], 3.18 ± 0.2.

With ITIEPGTSYRLQGLKPNSLYYFRL [PTPRD], the protein stability index runs as follows: under setting [1], 2.63 ± 0.12; under setting [2], 2.61 ± 0.43.

For IVFPEKLNGSVLPGSGAPARLLCR [ADAMTS4], the protein stability index reads like this: under setting [1], 2.87 ± 0.26; under setting [2], 2.59 ± 0.4.

IWFRVPYSIISLLLKDKVRERIQI [PTPN9]: the protein stability index reads like this: under setting [1], 2.56 ± 0.65; under setting [2], 2.77 ± 1.5.

As for IYSVVDLGMYQKVTSYCRSATLVG [SLC19A2], the protein stability index reads like this: under setting [1], 2.69 ± 0.42; under setting [2], 2.74 ± 0.69.

The record behind these values is the supplement of paper PMC10567573.
